# Experimental data reported in the DeepSol protein solubility set.
# Experiment: soluble on expression in E. coli; label from the status in PepcDB or PDB records
row,Sequence,soluble on expression in E. coli
1,MGSDKIHHHHHHMKKYMRTCSPRLAKEKYCTGCMACSDACTHDAIKIVEKNCMPFVKVDTHKCMNCHLCEKACPIITPVKKNRAEEMNVYGGWANDEQTRIDAASGGGFSGLAQSFFHLHKEDKVAVIGATLANNRVYHQLIEQEKDIVLLTNSKYIQSDTQGIYKEVIERLKTGYWILFSGCPCQIAGLYGFLGKKRDSERLITIEVVCHGIASYEALDLHLKYYNSSRIYRFRDKRHGTQDWKQSQCTTIEQNGEEIKLKRKDDMFYAIYAGWMLDRKSCSNCQFAEINRVADITIADFWGLQVPDYYKQGVSLIIANNNKADTMIKAADAIYTFKESLRTAINGNPHLFTGYKLIQFHPIVMWPDFFRKILPKRIRFKILTNRMPYKLFWALYKLGTIYLVKYQKKQLISKFQKDDNLLKLLNNANRGGGKMA,not soluble
2,MEHFHGNRWDQLRAVEADILCPPPADPFQIFPSGWTRASELSEKGWRELLDRRRSQSPPPREPSPDVRRAIRRTPPPRVNRVAPIRLPERRPLRQLNANDARRPAQDAANRINQENMRAGNIDNGQPRRRALSPTQLPGVRAIPKDFNRFFRGLLTPGEFFAKSQTRYLGPFDEMPTEDTLPAADEYIILQRMGRLPDSGKSIFRQVGNLST,not soluble
3,MGSSHHHHHHSAGENLYFQGQQGDLMPQSALFTGIIPPVSTIFTADGQLDKPGTAALIDDLIKAGVDGLFFLGSGGEFSQLGAEERKAIARFAIDHVDRRVPVLIGTGGTNARETIELSQHAQQAGADGIVVINPYYWKVSEANLIRYFEQVADSVTLPVMLYNFPALTGQDLTPALVKTLADSRSNIIGIKDTIDSVAHLRSMIHTVKGAHPHFTVLCGYDDHLFNTLLLGGDGAISASGNFAPQVSVNLLKAWRDGDVAKAAGYHQTLLQIPQMYQLDTPFVNVIKEAIVLCGRPVSTHVLPPASPLDEPRKAQLKTLLQQLKLCCGRTRAPPPPPLRSGC,soluble
4,SKRVVFVTVGTTSFDALVKAVVSQNVKDELQKRGFTHLLIQMGRGIFFPTKCDGADGSLVVDYFTFSSSIADYIRSASLVISHAGSGSIFETLKLGKPLIVVVNEDLMDNHQCELAEALEERKHLYYTRPHSLHQTLTKMELGSLVQYTPGDGTPVARIIDRFLG,soluble
5,GDSSSSGNSFVGLRVVAKWSSNGYFYSGKITRDVGAGKYKLLFDDGYECDVLGKDILLCDPIPLDTEVTALSEDEYFSAGVVKGHRKESGELYYSIEKEGQRKWYKRMAVILSLEQGNRLREQYGLGPYEAVTPLTKAADISLDNLVEGKRKRRSN,soluble
6,MSLAGDDAVNLTLVTGAPANGGSCVAHHEGRVVFVRYALPGERVRARVTAQRGSYWHAEAFEVIDPSPDRIGSLCSIAGADGAGCCDLAFAAPEAARTLKAQVVANQLERLGRHSWQGEAQPLSDAGPTGWRIRVRLDVGADRRPGFHRYHSGELVTDLDCGQLPVGMLDGLVAADWPPEAQLYVALDDDGERHVVCSVRQGPRNRTRTVTNVVEGAYHAHQRVHRRSWRVPVTAFWQAHRDAAAVYSDLIADWAQPAPGMTAWDLYGGAGVFAAVLGEAVGESGRVLTVDTSRLASGAARAALVDLPQVEVVTGSVRRVLAVQPAGADLAVLDPPRSGAGREVVDLLAGAGVPRLIHIGCEAASFARDIGLYRGHGYAVEKIKVFDAFPLTHYVECVALLTRKVEGHHHHHH,soluble
7,MGSDKIHHHHHHMRVLVVGLGNMGQSHALAHHAADGVEIIGLVNRSSRDLPGALQGYPMIQTVEEGLALSPDLVVIATYSDTHADLACQAMRAGAHVFVEKPLATTVADAKGVVETARETGQKLVVGYILRHHPSWMRLIEEARALGGPYVFRMNLNQQSTGAEWATHKALMQTTSPIVDCGVHYVDVWCQITDARPVAVHGMGLRLSDEIAPEMYNYGQFQVFFDDGSVGWYEAGWGPMMSEVAFFVKDVISPNGAVSITEADKAGSADIDGHTKVGGVLVHRPGDDQLIEFEGEPGHQELCDAEQAFMRRAIAEDLDLSRHMEDAVRSLAICLAADESIRTGQRVTL,not soluble
8,MYFMKSKNRFLLISLLSFSTSVFADVNLYGPGGPHVPLIKVAESFEKSQSKRVNITFGPQATWNDKAKKNADILFGASEHSALAIAEGHSERFSKFNIHPVFMREAIILVKKGNPKNIKGMADLLKPGIGIVVNDGAGVSNTSGTAVWEDSVGRMKNVEKLQAFRSNIHVFAPNSGSARKAFVDGEDIDAWITWVDWAIANPTIGDMVRMEDEYRIYRDFNVVLAKNPSSEAIDFFDYLTKSKDAEAIFQHYGWFK,not soluble
9,MEGWQRAFVLHSRPWSETSLMLDVFTEESGRVRLVAKGARSKRSTLKGALQPFTPLLLRFGGRGEVKTLRSAEAVSLALPLSGITLYSGLYINELLSRVLEYETRFSELFFDYLHCIQSLAGVTGTPEPALRRFELALLGHLGYGVNFTHCAGSGEPVDDTMTYRYREEKGFIASVVIDNKTFTGRQLKALNAREFPDADTLRAAKRFTRMALKPYLGGKPLKSRELFRQFMPKRTVKTHYE,soluble
10,MGSDKIHHHHHHMCVEGLTSSGSVNWHDAWLTLSDGVKLVARLWIPKGEGPWPALVMRQPYGRALASTVTYIHPGWWASHGYLVVVQDVRGQGDSEGHFNGFLQEASDTSQTHAWVRELPECNGRLGTYGFSYQGLTQLLAEPGTPPPDCLAPAMAGVDERNHWSCEGGAHWWHLGLAWGLQLAALQARRCGNWEAWRELRRSLEDDSYLYEGPALLKRHDPDGMSFRWLHQANQNDHGWVVHKPLDSWLRQPMLLLGGWWDPHLNGLLDLYQRSSQVGGSPELHIGPATHLQWWPDAQQLQLEFFDRHLKSSKALTNSRPHGRIWNITSCSWQTFASPTQTTTSANASWSLVSGGMACLDPSEGTLHQNKKGGGVVYVVHDPWRPVQSVGGHLSPKPGVAERSALDQRADVATFTSTALQEPLQLNGIPLLQLTVQSDQPGFDLCVALSIVNCNHSEVKQLSTGFLRVQGEQALRMLPRKVKLQPILADLERGEHLRLSLAGAAWPAIGVNPGHDRHPCGPPGPHCQVVTMTLQLNGSKLRFLSWNSGKIDFDLPQEF,not soluble
11,GPGSMGVVLRELRMRQESATFLLAAVSVNPLLRCAWEDLACLVSRETQLAELDAALDGLEPFFMVDIFAAEVRGLLGVTPVSSARLRIAAAAASAPSDGFEPSPPCSAPPEGHAATTTATAAKAGTRTSPLLPPPRTNAGATPPIPAAALSNAWECFSLLFPDTPFCLSQLAHFYYHQRNRLDRAEALYQRIRALDPHYLAILYDYSNVLYTKRDRLGLSSLAQSVYQADAFRAETNFAVGNYYVLLGQHDRAALHFHRATAIDPQCAEAWLLLGHAYVEVKNTTAAVEAYRTAVELNERDYRGWYNLGQIYELLEAYHHALYYYWHTTSLRPADPGMWVAVANCLEHDGRIAESIACLERAETYDSSSSPSYPAYVRRIATHHIANSSYTRACVYLEKLAQSPAASTEDLLLALPFIVQHYVQRARSSVEGFARSSSYDTVLFSPGANNVSLMSSPASGAVAAGRTALHHARAAAALQHLNKAEEHLSTMAELVMPSGHNGAGNEEAAQTPATSAAAGESEQGGAENTAPQRAAEDAPHRRRTRQPRSGAAANASVSASASAALAAVAASTAPSAGDVPPVAFVRSRHQEIGMLRAQAMHLLQIGAGASGSTIPVAASASASVATQPSSSSSQQQQQQQQQRHQQHRNPFVSQLLGRYQ,not soluble
12,MNLFYNKEAVGDVAFLQINPTEGEYNYVTQGDVVEIQNDGEVVGYNIFNASNKATLTGNGHIKLTETLVQAFQKAIEAAGFTYKLDADFTPKFVVGYVETKDKHPDADKLSVLSVDVATEKLQIVCGAPNVEAGQKVVVAKVGAVMPSGMVIKDAELRGVASSGMICSMKELGLPNAPQEKGIMVLSDDYTVGQSFFEVLEHHHHHH,soluble
13,FRFCFKQMNKSQHELVLGWIHQPHINEWLHGDGLSNTIKDLHEFLNDGKPWATHWIAYDNEIPFAYLITSEIEKSEEYPDGAVTLDLFICRLDYIGKGLSVQMIHEFILSQFSDTKIVLINPEISNERAVHVYKKAGFEIIGEFIASWHPVPHYKMKLCI,not soluble
14,MGITVMARIDNYEQRFGGIGRLYTPDSLARLRQAHICVIGIGGVGSWVVEALARSGIGELTLIDMDDICVTNINRQLPAMSGTIGKLKTEVMSERVKLINPECTVNIIDDFISPENQSDYLNRGYDYVIDAIDNVKTKASLIAYCKRNKINVITIGGAGGQTDPTQIQIADLSKTIQDPLLAKVRSVLRKDYNFSQNPKRKFSIDAVFSTQPLIFPQMTEGCSTSATMNCANGFGAATMITATFGFFAVSRVIDKLLKKKSLEHHHHHH,not soluble
